Results published in the DeepSol protein solubility set.

Test: soluble on expression in E. coli; label from the status in PepcDB or PDB records

Question: With “MSLESVKCIFERHPDFASKFRPKNRHMKSTYMTVLLGLIKTMCQLPEELTDDDLDEASVAVSYVENGGLRLDWLEKKLAEVKAKKKKVETGKARLQRAEEELQKLNQKCLEMKAFLEKENADVSEANVPLSFEDVVSMIPLPNLHAKNAGYLVNGEVKIVVEINDLEVIGKLDVSEESEETNQPLKKIKLDDNDAVSFDSLNETSPVKESIDVNGFQVLPSEGHHHHHH” as the sequence, how does the “soluble on expression in E. coli” value read?
Answer: soluble

Question: With “MSLSSPTADVEKLRRIIEVARGDRRADFVVKNAQIVDLVNEEIFEGDIAVAEGFIAGIGSYSGVEECEASNLVAVPGLIDAHTHIEMSMLTVSEFARLVVPRGTTGVVADPHEIANVLGKDGVMLMLEEARSTPLRFYCMVPSCVPSSPLETSGARIGVEEIRELLEEEEVLGLAEMMNFPGVVSADREVLEKIVLAGIVDGHAPGLRGKKLNAYIAAGASSDHETTSFEEGKEKLRLGMWVMIREGSAARNLVALKGLTGNRHTMLVTDGDRSVKDIIEEGYLDHVFRRAIEEGIDEIKALQMLTLNPAEYFGINAGLIAPSRLADIVLLKNLRKFEVRDVFVGGRRPEFKRFNHPEWAKKTVKARKITPESIQLKTGRVRVIEVYDGEIVTGEAIEEVQGVDVERDILKAVVVERHIRSGRVGKAYVRGFGLKRGAIAQSIAHDAHNIVCVGVDDGSICAAVNRVIELQGGIVVADAEVRAELPLPIAGIMSDERAERVLERLSEIEEEVRKLGCRLKSPVITLSFIALPVIPKLKLTDLGLVDVEAFRVVDLQADEGHHHHHH” as the sequence, how does the “soluble on expression in E. coli” value read?
Answer: not soluble

Question: With “MLKTPSDAAVAGCLSLLLEVSGNPKAGNVDREHDFDDLKFEHFLASAAGAFPAFLEVAEKRIIGEGVLRAVKESMRWHRAENVHFGAFLLLVPLISSWDAG” as the sequence, how does the “soluble on expression in E. coli” value read?
Answer: not soluble

Question: Which “soluble on expression in E. coli” value does the source give for “MAHHHHHHMTITLDSFNEQKVHNNQNKRKYNCRLNFKRFTKRRNNYNEDNRDSKINIKTALIKNEVISDDNDEFIDSNLMRTCHRFRLYKHSSNKIDIYYPYDKKKLDKYDYERDQTFCSLTDIEDVVNNGDDKSSKFFYYKNKSLNDYKSCFEKKNKKTKWFRLRKKKKKDHAMDESLKYLNESVCSNYKEANKNNKLDNSSKYSKNCVINTTVNGIRGFSAWIF” here?
Answer: not soluble

Question: For “MEPRVTQRKRPLDGCMGKITGITSDILKYDHKCFKLSLPAKFPEVCGSDEVFPDPDLLHVLPVAGSLQQSIDQCCLQLESLCRPGLLCAHPTLLFKLHSSMKNRPFFSLIYTYVKKTQQVRKRDRKPRGQVAAGPNPTSVMLEHHHHHH”, which “soluble on expression in E. coli” value is on record?
Answer: soluble

Question: Which “soluble on expression in E. coli” value does the source give for “MKIAIEGCMHGDLDNVYKTIQHYEQIHNTKVDLLLCCGDFQAVRNEKDMDSLNVPRKYREMKSFWKYYSGQEVAPIPTIFIGGNHEASNYLWELYYGGWAATNIYFLGFAGVVKFGNVRIGGLSGIYNERHYRSGHFERPPYNESTIRSVYHVRDYDVQKLMQLEEPLDIFLSHDWPVGITDYGDSESLMRQKPYFRQEIEEKTLGSKPAALLLEKLKPQYWFSAHLHCKFAAAVQHGNDGSVTKFLALDKCLPGKKFLQIIEIESEPGPFEVLYDEEWLAITRKFNSIFPLTRRYTNVRYTIPNKLPTKKWERTDIPASLAPSDTYSVKLFIYSFYLPIVMKLHQAPMTEMFSAVSRIKHVLLCIADLPTYDSEEIPIDDIDEIEEMEEAKADDHTRDDA” here?
Answer: soluble

Question: For “MRIRIRVLSHFSSALGFDESSFSIGEGITFAELRSKLIEQFSAFVRPIEIGMYVNMKPVPDDYTMMDGDIVYVFPRSSTP”, which “soluble on expression in E. coli” value is on record?
Answer: not soluble

Question: Which “soluble on expression in E. coli” value does the source give for “DHVLLITGGTRGIGLLCARHFAECYGVKKLVLTGREQLPPREEWARFKTSNTSLAEKIQAVRELEAKGVQVEMLSLTLSDDAQVEQTLQHIKRTLGPIGGVIHCAGLTDMDTLAFIRKTSDDIQRVLEPKVSGLTTLYRHVCNEPLQFFVLFSSVSAIIPELSAGQADYAMANSYMDYFAEAHQKHAPIISVQWPNWKETGMGEVTNQAYRDSGLLSITNSEGLRFLDQIVSKKFGPVVLPAMANQTNWEPELLMK” here?
Answer: soluble

Question: Which “soluble on expression in E. coli” value does the source give for “KMGPEYTKMQNLVKSEGLHTVCQEAGCPNIYECWEDREATFLIGGDQCTRRCDFCQIDTGKPEALDRDEPRRVGESVVTMDLNYATITGVARDDLEDGGAWLYAETVRQIHAQTAGREAGRTKVELLAPDFNAEPDQLAEVFSARPEVFAHNVETVPRIFKRIRPGFRYERSLKVITEARDYGLVTKSNLILGMGETREEVSEALRQLHDAGCELITITQYLRPSVRHHPVERWVKPHEFVELKEEAEEIGFSGVMSGPLVRSSYRAGRLYQMAMELRQSAAPQGGAQVASQAV” here?
Answer: not soluble

Question: Which “soluble on expression in E. coli” value does the source give for “MSPVEAALETLAHTMGITVIETSKLGSTLNACFHPPTQTIFIKIGLDPVTRRCAIAHELGHAHYGHNCSTPGAERQADEWAAQQLLDVGDVEAVGLECEGSAAAMAAELGVTPHLLVLWMGMYERGRIQPEKRAC” here?
Answer: not soluble

Question: With “MGSDKIHHHHHHMTNTLKTSYQKTPYKLGGNGPRNVGVLTEALQNIDDNSESDIYGNGAVIENFETKIAKILGKQSAVFFPSGTMAQQIALRIWADRKENRCVAYHPLSHLEIHEQDGLKELQQITPILLGTANRLLTIDDIKSLREPVSSVLIELPQREIGGQLPSFEELEEISEYCHEQGISLHLDGARLWEIMPFYQKSAEDICSLFDSVYVSFYKGIGGIAGAILAGNADFVQEAKIWKRRYGGDLISLYPYILSADYYFEKRIGKMAEYFEAAKGLAERFNSCPGLKTVPEVPISNMFHVYFEKSADEVGTILTKIQDETGVGISGYLQEKSADVCAFEVSVGDAFAEIPTKDLESAFECLEKELRL” as the sequence, how does the “soluble on expression in E. coli” value read?
Answer: not soluble

Question: With “SESVHPGNHNLDTLSHSQISKEEETFPSHQLYTFQAPWLVYGLAWCNRVNSPYSLALSSFIESCNNKIILVELNDKTEDFQQVVQVDHPYPASKVAFIPDYSGTRPQLLATSGDALRIWEWSNDNLKSKALLSTNPESEYCAPLTSFDWCEVNPATLCTSSVDTTCTIWDVETQQAKTQLIAHDKEVYDVAFQTGTDKIFASAGADASVRCFDLRNLETSTILYEIPDDSTPILRIGWNKKEPNYMAALVMDSSKFLLLDIRVPSLPVAEMEHKLTNHKRHKSVNAIHWAPHSSSHICSAGDDCYTLIWDISAIPRPIEEPILSYQSDREVNNLQWSAADPDWIAIAAGNKMQILRV” as the sequence, how does the “soluble on expression in E. coli” value read?
Answer: soluble

Question: With “MSLSEEDLIENPLPENLLDKVIEGDAREVLKKIPDCSIHLMVTSPPYNVGKEYDEDMTLDEYLEFIEEIMKEVYRVLVWGGRACFNVANLGRKPYIPLHAYLIHLFEKIGFLIRGEIIWDKGEAVSGSSTAWGSWMSPVNPVLRDQHEYIIVMSKGDLKRRKPSDREAKSTITREEFLEFTRSVWKFPPESAKRVGHPAPFPEELPYRCIQLYTFKGDVVLDPFAGVGTTCVAAVKTGRHFVGIEINPEYVKKAEERVKDILSKPTLFEDHEGHHHHHH” as the sequence, how does the “soluble on expression in E. coli” value read?
Answer: soluble

Question: With “MFTGIVQGTAPIHSIKEKANFRTQVVKLLPEMRKDLEIGASIANNGVCLTVTEINGDLVSFDLMQETLKITNLGTVKVGDYVNIERAMQMGTEIGGHLLSGHIYCTAKISDIIASENNRQIWFELPSADVMKYILTKGFVAVDGISLTIGEVRDTQFCVNLIPETLQRTLMGRRKVGDIVNIEIDPQTQAIVDTVENYLQSKNFLEHHHHHH” as the sequence, how does the “soluble on expression in E. coli” value read?
Answer: soluble

Question: With “MVNTIGFDREKYIEMQSQHIRERREALGGKLYLEMGGKLFDDMHASRVLPGFTPDNKIAMLDRIKDEVEILVCINAKDLERHKIRADLGISYEEDVLRLVDVFRDRGFLVEHVVLTQLENDNRLALAFIERLQRLGIKVSRHRVIPGYPTDMDRIVSDEGFGLNEYAETTRDLVVVTAPGPGSGKLATCLSQVYHEHKRGVAAGYAKFETFPIWNLPLEHPVNLAYEAATVDLNDANVIDHFHLAAYGEQTVNYNRDVEAFPLLKTLLERLMGESPYQSPTDMGVNMAGNCISDDAACRHASEQEIIRRYFKALVEEARTGKDSTQSDRAAVVMAKAGIKASQRVVVEPARQVEERTSLPGCAIELVDGSIITGATSDLLGCSSSMLLNALKHLAGIDDAIHLLSPESIEPIQTLKTVHLGSSNPRLHTDEVLIALSVSAATDSNAQKALDQLKNLRGCDVHTTTILGSVDEGIFRNLGVLVTSDPKFQKNKLYQKR” as the sequence, how does the “soluble on expression in E. coli” value read?
Answer: not soluble

Question: With “MLNVGDSVQIAGCSTKKRLLETSSGCDSFDTLIGGALVNSSIVLIDEYRSRCYGSYLIRSFLAEGLHHGHRCFIADPTEDPKEINLIPSRRTSTDMQNQEIPNSLPAENENSMKIAWRYGNVKQVSSSLGPLSNENQYDFTKHVENPNVDVYAEKVFTLKGIYETLCQIVKENEAHTKSGGRGGPKKNLLRVVLKNIDMEICEDYKFLGRFLCCLRSLARSSYMIVYITANSFRVPKPTWRILESAADTHIQLMPFDENEKKMFKHLGTAHGYFHLKSLPRLMSVGTHTPPILDLIFEASSRKGFQIRVMHLPPAFDEPAPGHQNTPSCQNIDF” as the sequence, how does the “soluble on expression in E. coli” value read?
Answer: soluble

Question: For “MAPILSHSIPIPSSMQANWQQMLNLLAEVLKVSATLIMRLRHHDLDVFCTSVGSDNPYQVGMTERLGTGLYCETVVNTRQILLVSNADLDPLWKDNPDLELGMRAYCGVPLQWPNGELFGSLCVTDRQARQFLSTDQQLIKTFAESIEAQLKTLYQRETLLQMNQ”, which “soluble on expression in E. coli” value is on record?
Answer: not soluble

Question: With “MSLDSWNVLIADDEIIIREGIRDAINWSELQLTVVAEAEDGEEALELALEHQVDILLADLNMPIMNGLTLIKQLRTALPHCKVIIITGHDEFVYAQEAIRLSVVDYIIKPVDADQLYEVLKKVCIELTEGQNRKREETFTAKQLEKNITLLREQFCSNWVMGALTNEEVAEQLSFLQLPDTLPSFIGVIRCLNRLHLVGEGHHHHHH” as the sequence, how does the “soluble on expression in E. coli” value read?
Answer: soluble

Question: For “MGSDKIHHHHHHMKFIVTPDIFEKLPDMYVGVVVAKGIDNSKNYPEIDRLLNRYMKYSQQKFDGINVKQNDEIIPYREAFRKIGINPNRYPCSAEALFKRLSKGKNLPHINPLVNLNNAISLKYTVLMGTHSLDGVQDDIIMRLTKSGDNFVPLGKDEVEEPDEGEVVYAVGSDVCIRRWTWRQSEHSKITDQTHDVFFPIDGFVDVNRDAVDKAREDLVGKSKEIFGVETQVGYVDKNHPEFEWE”, which “soluble on expression in E. coli” value is on record?
Answer: not soluble

Question: With “MAKEFLIELGTEELPPKQLRTLAEAFAANFAAELATADIAHEGVTWFATPRRLALKVANLAESQPDRVVEKRGPAVNVAFDADGKPTKAAEGWARGNGITVEQAERLVTDKGEWLLFKEQVQGQQTASVVVEMAAKALANLPIAKPMRWGDKETQFIRPVKTLTILFGSELIQGEILGVASARTLRGHRFMGEAEFTIESAEQYPAILEERGKVIADYATRKAMIIEGSQQAAQQLGGIADLEDALVEEVTSLVEWPVVMTAKFEEKFLKVPAEALVYTMKGDQKYFPVYDASKKLLPNFIFVSNIESKEPRHIVEGNEKVVRPRLADAEFFFNTDRKRPLVDRLPLLENAIFQQQLGTIKDKTDRITELAGYIAEQIGADVEKSKRAGLLAKCDLMTSMVFEFTDTQGVMGMHYARHDGEAEEVAVALNEQYMPRFAGDELPSRGVSAAVAMADKLDTIVGIFGIGQAPKGSDPFALRRASLGVLRILVEYGYQLDLVDLIAKAKSLFGDRLTNANVEQEVIEFMLGRFPTWYQDAGFSIDIIQAVLARNPTKPADFDQRVKAVSHFRALEEAEALAAANKRVGNILAKYDGELGEEIDLALLQEDAEKALAEAVEIMAEALEPAFATGNYQEALSKLAGLRAPVDAFFDNVMVMADDEALKKNRLTLLNKLRNLFLQIADISLLQK” as the sequence, how does the “soluble on expression in E. coli” value read?
Answer: not soluble

Question: With “MGSDKIHHHHHHMVANPALPEGISDLPAGTLASVVTYLEMKTPPPIKGLETPPGLRLLRHDAPDVEWYCRLYRLVGEDYLWFSRLMWDYATLAAHLASDRVEVWSLQKQGVDLGLLELEWMQDGDCELSFFGLSKELIGAGVGRWLMEHATARAFSREISRFFVHTCTLDSPQALGFYMRSGFVPYGRAVEIAEDPRLTGLIPKTAAAHVPLIQR” as the sequence, how does the “soluble on expression in E. coli” value read?
Answer: not soluble
